Measurements taken from patent US20170056486A1 (IMMATICS BIOTECHNOLOGIES, published 2017).

biological target: T1, HLA-A*02:01 (human); assay: biotinylated peptide-MHC complex used as negative control in T-cell priming
T1 construct: MHC class I molecule without the peptide
Protocol: 800.000 beads/200 μl were coated in 96-well plates in the presence of 4×12.5 ng different biotin-pMHC, washed and 600 ng biotin anti-CD28 were added subsequently in a volume of 200 μl. Stimulations were initiated in 96-well plates by co-incubating 1×10⁶ CD8+ T cells with 2×10⁵ washed coated beads in 200 μl TCM supplemented with 5 ng/ml IL-12 (PromoCell) for 3 days at 37° C. Half of the medium was then exchanged by fresh TCM supplemented with 80 U/ml IL-2 and incubating was continued for 4 days at 37° C. This stimulation cycle was performed for a total of three times. For the pMHC multimer readout using 8 different pMHC molecules per condition, a two-dimensional combinatorial coding approach was used as previously described (Andersen et al., 2012) with minor modifications encompassing coupling to 5 different fluorochromes. […] For analysis, a BD LSRII SORP cytometer equipped with appropriate lasers and filters was used. Peptide specific cells were calculated as percentage of total CD8+ cells. Evaluation of multimeric analysis was done using the FlowJo software (Tree Star, Oregon, USA). In vitro priming of specific multimer+ CD8+ lymphocytes was detected by comparing to negative control stimulations.

Binder | binding result
YLLPAIVHI (negative control peptide of the T-cell stimulations; also called 419) [DDX5-001 (YLLPAIVHI from DDX5)] | binds

biological target: T2, HLA-A*02 (human); assay: UV-exchange ELISA (anti-b2m); yield 50%-75%
T2 construct: Peptide-receptive MHC monomer made by UV cleavage of a UV-sensitive ligand and captured on streptavidin plates; also called HLA-A*02 MHC class I molecule; peptide-receptive MHC
Description: (§1) Candidate peptides for T cell based therapies according to the present invention were further tested for their MHC binding capacity (affinity). The individual peptide-MHC complexes were produced by UV-ligand exchange, where a UV-sensitive peptide is cleaved upon UV-irradiation, and exchanged with the peptide of interest as analyzed. Only peptide candidates that can effectively bind and stabilize the peptide-receptive MHC molecules prevent dissociation of the MHC complexes. To determine the yield of the exchange reaction, an ELISA was performed based on the detection of the light chain (β2m) of stabilized MHC complexes. The assay was performed as generally described in Rodenko et al. (Rodenko et al., 2006).
(§2) 96 well MAXISorp plates (NUNC) were coated over night with 2 ug/ml streptavidin in PBS at room temperature, washed 4× and blocked for 1 h at 37° C. in 2% BSA containing blocking buffer. […] Peptide-MHC monomers of the UV-exchange reaction were diluted 100 fold in blocking buffer. Samples were incubated for 1 h at 37° C., washed four times, incubated with 2 ug/ml HRP conjugated anti-β2m for 1 h at 37° C., washed again and detected with TMB solution that is stopped with […]. Absorption was measured at 450 nm.

Binder | peptide exchange yield
SIGDIFLKY | 50 to 75%
ALVSGGVAQA | 50 to 75%
GRADALRVL | 50 to 75%
SLLPLVWKI | 50 to 75%
FLWPKEVEL | 50 to 75%
AIWKELISL | 50 to 75%
KVLGKIEKV | 50 to 75%
SLWFKPEEL | 50 to 75%
GTFLEGVAK | 50 to 75%
ILSVVNSQL (also called KIAA0226L-002) | 50 to 75%

biological target: T2, HLA-A*02; assay: UV-exchange ELISA (anti-b2m); yield 20%-49%
Description: as §1, §2

Binder | peptide exchange yield
FAWEPSFRDQV | 20 to 49%
VLLAAGPSAA | 20 to 49%
LLRGPPVARA | 20 to 49%
FLIDTSASM | 20 to 49%
GVLKVFLENV | 20 to 49%
KILDLTRVL | 20 to 49%
GVIETVTSL | 20 to 49%
RLLPKVQEV (also called ZNF-003) | 20 to 49%
GLSSSSYEL | 20 to 49%
GLLWQIIKV | 20 to 49%
PLWGKVFYL | 20 to 49%
SVDSAPAAV | 20 to 49%
FLGDYVENL | 20 to 49%
KTLDVFNIIL | 20 to 49%
ALDDSLTSL | 20 to 49%
HLYNNEEQV | 20 to 49%

Binder | peptide exchange yield
EYALLYHTL | 20 to 49%
ILDETLENV | 20 to 49%
IASAIVNEL | 20 to 49%
VLLRVLIL | 20 to 49%
LLYDGKLSSA | 20 to 49%
VLISSTVRL | 20 to 49%
GLMDGSPHFL | 20 to 49%
VLGPGPPPL | 20 to 49%
LLDHLSFINKI | 20 to 49%
YVLPKLYVKL | 20 to 49%
VLFLGKLLV | 20 to 49%
SVAKTILKR | 20 to 49%
IQADDFRTL | 20 to 49%
HLPDFVKQL | 20 to 49%
GLIYEETRGV | 20 to 49%
TLDHKPVTV | 20 to 49%

biological target: T2, HLA-A*02; assay: UV-exchange ELISA (anti-b2m); yield <20%
Description: as §1, §2

Binder | peptide exchange yield
SSLEPQIQPV | < 20%
TLSSERDFAL | < 20%
AQTVVVIKA | < 20%
GAVAEEVLSSI | < 20%

biological target: T2, HLA-A*02; assay: UV-exchange ELISA (anti-b2m); yield >=75%
Description: as §1, §2

Binder | peptide exchange yield
SLYHRVLLY | ≥ 75%
SLVPLQILL | ≥ 75%
ALSDETKNNWEV | ≥ 75%
KLYGIEIEV | ≥ 75%
AIFDFCPSV | ≥ 75%
MLSDLTLQL | ≥ 75%
